Substrate in data set [1]: CC(=O)C=O
In words: purified protein. The following applies: 200 μM NADPH (methods; figure legend prints 200 mM), sodium phosphate pH 6.5, methylglyoxal varied. It counts as biochemical, Aphis craccivora.

Substrate in data set [2]: NC(=O)c1ccc[n+]([C@@H]2O[C@H](COP(=O)(O)OP(=O)(O)OC[C@H]3O[C@@H](n4cnc5c(N)ncnc54)[C@H](OP(=O)(O)O)[C@@H]3O)[C@@H](O)[C@H]2O)c1
In words: purified protein. The data set is classed as biochemical, Aphis craccivora. The following applies: 200 mM xylitol fixed, NADP+ varied, 100 mM glycine pH 9.5, 3 mM MgCl2, paper speaks of it as constant of xylitol oxidation, varied: cofactor.

B1: AcDCXR (Aphis craccivora) (protein)
chain: MEEFFVGKKFIVTGANAGIGETITKRLVQLGAHVFAVGRDPKKLPPAGPNLTPVCADVGDWDSYDIIKKLGPVHGLVNNAGVAFIESFFDMTQEGWDKTLNINARGIVRISQAVAQNMKDAGIKGSIVNVSSTISERAIPDHTSYCASKGAVNQVTRVMSIELGKLGIRTNNVNPTVVMTKMGAKAWSDPEKSNPILSRIPLGRFAECDDVANVTLFLLSDYSTYVNGVSIPVDGGFLAS
notes: coding region without predicted signal peptide (first 23 of at least 263 residues); pDEST17 N-terminal 6xHis tag, no cleavage told; E. coli ArcticExpress
Broadly, the Km is the concentration of substrate that gives half-maximal velocity. The term kcat denotes the maximal rate divided by the concentration of active sites. Regarding B1, in “purified protein [1]”, the Km is 1300 µM and the kcat worked out at 0.23 s⁻¹. Besides, in “purified protein [2]”, the Km turned out to be 560 µM and the kcat was 1.85 s⁻¹.

The values above are taken from paper PMC7243947, “AcDCXR Is a Cowpea Aphid Effector With Putative Roles in Altering Host Immunity and Physiology” (Frontiers in Plant Science, 2020).
